This series addresses HER2-ECD (recombinant human HER2/ErbB2/CD340) (human, UniProt P04626 23-652). Briefly: electrochemical aptasensor (DPV); Rh-NPs/rGONs graphite electrode; linear 10-500 ng/mL; LOD 0.665 ng/mL (0.667 in abstract), not a Kd; DPV in 0.1 M PBS pH 7.4, 5.0 mM K4[Fe(CN)6]/K3[Fe(CN)6] (1:1), 0.1 M KCl; 50 nM aptamer immobilized; 40 min protein incubation; BSA-blocked; binding temperature not stated. Particulars: protein: commercial; predicted double stem-loop; text also claims G-quadruplex.

B1: anti-HER2 aptamer (ssDNA)
DNA: GGGCCGTCGAACACGAGCATGGTGCGTGGACCTAGGATGACCTGAGTACTGTCC
modifications: 5' NH2-(CH2)6, amide-coupled to MPA on electrode
For the molecule B1, the binding result is listed as “binds”.

The values are drawn from paper PMC8885668, “A high-performance electrochemical aptasensor based on graphene-decorated rhodium nanoparticles to detect HER2-ECD oncomarker in liquid biopsy”.
